Where a chain is given by its changes, count along the chain named.
T1: human CLDN9 (human, UniProt O95484 1-217)
T1 construct: also called hCLDN9
T1 sequence: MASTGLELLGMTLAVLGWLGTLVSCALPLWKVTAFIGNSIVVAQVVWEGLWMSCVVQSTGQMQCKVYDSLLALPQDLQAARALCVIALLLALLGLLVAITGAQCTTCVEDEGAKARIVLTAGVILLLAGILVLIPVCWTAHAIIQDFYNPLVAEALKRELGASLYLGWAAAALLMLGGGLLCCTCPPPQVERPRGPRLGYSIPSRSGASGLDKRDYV

T2: human CLDN4 (human, UniProt O14493 1-209)
T2 construct: also called hCLDN4
T2 sequence: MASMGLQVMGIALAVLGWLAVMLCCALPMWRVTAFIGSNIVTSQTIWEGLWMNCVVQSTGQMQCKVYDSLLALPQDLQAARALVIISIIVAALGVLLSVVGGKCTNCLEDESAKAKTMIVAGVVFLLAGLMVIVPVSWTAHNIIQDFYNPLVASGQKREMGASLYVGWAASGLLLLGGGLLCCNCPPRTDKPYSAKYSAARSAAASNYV

B1: AB3-1 (antibody, V domains shown)
VH: EVQLQQSGPELVKPGGSMKISCKASGYSFTGYTMNWVKQSHGKNLEWIGLINPYNGGISYNQKFKDKATLTMDKSSSTAYMELLSLTSEDSAIYFCARDYRYEGFDYWGQGTLVTVSA
VL: QIVLTQSPAIMSASLGERVTMTCTASSVVISTYLHWYQQKPGSSPKLWIYSTSNLASGVPVRFSGSGSGTSYSLTISSMEAEDAATYYCHQYHRSPWTFGGGTKLEIK
notes: also called anti-human CLDN6 monoclonal antibody AB3-1
B2: AE1-16 (antibody, V domains shown)
VH: EVQLQQSGPELVKPGASVKISCKASGYSFTGYFMNWVKQSHGKSLEWIGRINPYNGDTFYNQKFKGKATLTVDKSSNTAHMELRSLTSEDSAVYYCARVLFLDFDDPYLMDYWGQGTSVTVSS
VL: ENVLTQSPAIMSATLGEKVTMSCRATSNVKYMYWYQQKSGASPKLWIYYTSNLASGVPARFSGSGSGTSYSLTISSVEAADAATYYCQQFTSSPSTFGAGTKLELK
notes: also called anti-human CLDN6 monoclonal antibody AE1-16
B3: AE49-11 (antibody, IgG2b, V domains shown)
VH: B2 VH with N77S
VL: B2 VL
notes: also called AE49-11 antibody; original IgG2b antibody

Assays:
[1] = target: T1, human CLDN9; test: flow cytometry on Ba/F3 cells forced to express human CLDN9
[2] = target: T2, human CLDN4; test: flow cytometry on Ba/F3 cells forced to express human CLDN4

Binder | binding result [1] | binding result [2]
B1 | binds | –
B2 | binds | binds
B3 | binds | binds

From patent US20110059469A1 (UNIVERSITY OF TOKYO, published 2011)
